Experimental data from patent US20260234269A1.

Legend:
[1] = target: mouse Gal3 on mouse cells (B16F10 tumor cells, RAW264.7 macrophages) (mouse) (UniProt P16110); assay: flow cytometry, B16F10 cells
[2] = target: human Gal9 protein (R&D systems) (human) (UniProt O00182); assay: ELISA, hGal9 coated, mTIM-3 Fc with or without 25 mM lactose
Sequence of human Gal9 protein (R&D systems) (human) (O00182 other isoform, or with tags, fused parts or gaps limits assumed): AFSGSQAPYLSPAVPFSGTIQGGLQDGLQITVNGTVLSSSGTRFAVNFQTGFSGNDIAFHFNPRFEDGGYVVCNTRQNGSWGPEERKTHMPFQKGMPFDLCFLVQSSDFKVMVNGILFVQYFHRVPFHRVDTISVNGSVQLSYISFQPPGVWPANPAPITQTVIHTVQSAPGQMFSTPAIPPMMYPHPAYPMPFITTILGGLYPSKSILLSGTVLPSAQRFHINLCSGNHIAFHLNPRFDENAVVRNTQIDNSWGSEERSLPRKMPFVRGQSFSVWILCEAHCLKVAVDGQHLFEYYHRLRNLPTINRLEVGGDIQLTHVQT

Sequence of mouse Gal3 on mouse cells (B16F10 tumor cells, RAW264.7 macrophages) (mouse) (P16110 2-264): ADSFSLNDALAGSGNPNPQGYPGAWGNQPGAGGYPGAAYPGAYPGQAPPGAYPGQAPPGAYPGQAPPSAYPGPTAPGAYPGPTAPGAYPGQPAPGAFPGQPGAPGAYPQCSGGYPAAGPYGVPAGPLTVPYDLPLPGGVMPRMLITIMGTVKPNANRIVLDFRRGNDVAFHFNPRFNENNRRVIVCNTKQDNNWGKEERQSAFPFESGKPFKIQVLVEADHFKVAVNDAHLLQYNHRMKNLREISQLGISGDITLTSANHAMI

Row | MFI, fold over isotype control antibody [1] [fold] | fold reduction in signal with 25 mM lactose [2] [fold] | Substance
1 | 10 | – | rat anti mouse Gal3 PE antibody (Thermo Fisher Scientific)
2 | – | > 10 | mouse TIM-3 Fc protein (R&D systems) (from UniProt Q8VIM0 20-191) (Fc fusion)
